The nature of this series: soluble on expression in E. coli; label from the status in PepcDB or PDB records.
As for “MTIPFDHWPEWPQHSDRTRRKIEEVFQSNRWAISGYWTGEESMERKFAKAFADFNGVPYCVPTTSGSTALMLALEALGIGEGDEVIVPSLTWIATATAVLNVNALPVFVDVEADTYCIDPQLIKSAITDKTKAIIPVHLFGSMANMDEINEIAQEHNLFVIEDCAQSHGSVWNNQRAGTIGDIGAFSCQQGKVLTAGEGGIIVTKNPRLFELIQQLRADSRVYCDDSSELMHGDMQLVKKGDIQGSNYCLSEFQSAILLDQLQELDDKNAIREKNAMFLNDALSKIDGIKVMKRPPQVSRQTYYGYVFRFDPVKFGGLNADQFCEILREKLNMGTFYLHPPYLPVHKNPLFCPWTKNRYLKSVRKTEAYWRGLHYPVSERASGQSIVIHHAILLAEPSHLSLLVDAVAELARKFCVTH”, the “soluble on expression in E. coli” value was “soluble”.
As for “MTITKLAWRDLVPDTDSYQEIFAQPHLIDENDPLFSDTQPRLQFALEQLLHTRASSSFMLAKAPEESEYLNLIANAARTLQSDAGQLVGGHYEVSGHSIRLRHAVSADDNFATLTQVVAADWVEAEQLFGCLRQFNGDITLQPGLVHQANGGILIISLRTLLAQPLLWMRLKNIVNRERFDWVAFDESRPLPVSVPSMPLKLKVILVGERESLADFQEMEPELSEQAIYSEFEDTLQIVDAESVTQWCRWVTFTARHNHLPAPGADAWPILIREAARYTGEQETLPLSPQWILRQCKEVASLCDGDTFSGEQLNLMLQQREWREGFLAERMQDEILQEQILIETEGERIGQINALSVIEFPGHPRAFGEPSRISCVVHIGDGEFTDIERKAELGGNIHAKGMMIMQAFLMSELQLEQQIPFSASLTFEQSYSEVDGDSASMAELCALISALADVPVNQSIAITGSVDQFGRAQPVGGLNEKIEGFFAICQQRELTGKQGVIIPTANVRHLSLHSELVKAVEEGKFTIWAVDDVTDALPLLLNLVWDGEGQTTLMQTIQERIAQASQQEGRHRFPWPLRWLNWFIPN”, the “soluble on expression in E. coli” value is “soluble”.
Then “MTITSFGPANRIARTAETHPLTWRLRDDGEPVWLDEYQTKDGYAAARKALTQQAPDDIVQSVKDSGLKGRGGAGFPTGVKWGLMPKDESMNIRYLLCNADEMEPNTWKDRMLMEQLPHLLIEGMLISARALKAYRGYIFLRGEYVTAAKHLNRAVAEAKAAGLLGKNILGTGFDFELFVHTGAGRYICGEETALINSLEGRRANPRSKPPFPAAVGVWGKPTCVNNVETLCNVPAIVNNGNDWYKSLAREGSEDHGTKLMGFSGKVKNPGLWELPFGVQARELFEDYAGGMRDGFTLKCWQPGGAGTGFLLPEHLDAQMYAGGIAKVGTRMGTGLAMAVDDSVNMVSLLRNMEEFFAQESCGFCTPCRDGLPWSVKILRAIENGHGQPGDIETLLGLVNFLGPGKTFCAHAPGAVEPLGSAIKYFRSEFEAGIAPASAAMLVPGKSPTVVGALEHHHHHH”, with “not soluble”; and “MTITYSGDELFLQLRGDLLNYLCRKLSKDEAADILQEIYLRWRRQDISSIENPRAFLFTVALNLIRDQARRQAHVQTYANTMQHLFQDKPADYDLAQHCDERRQIEYLQQALDQLPENVRHAFLLFRLDGLTFAEIALQMGISSKSVARYIQHASEHCLTALAQYR”, with “not soluble”; and “MTKASDAVKGIINSNNIYTLLLNTGLVNYTKLAREIKSQVDFLTGKKVKINTIVKALTNIEIKSKPKDILLILKQSILTLEYNYKEITTENRNKIPDDAILVIKESNGYSAIIKTTDGNSLVIAKILLPPGSCTTAGITLLITEFLEINGVSVRNIYRLSKEIWIIVDSESAGKAADALNRLLYKSNDRESSPVSLVD”, with “not soluble”.
The same measure for “MTKFILLALVGLAAAIDFDSSSSESCEDGNGHGHGHGNGNGNGNGNGNGNGGRANGGCETGWRHFRRPSGSWCVRVFGGRLNQGAAQSQCQSFGATLSGLRNLEEARTISNLALSVIGRSSGGIWLGARRTTACAKQHKTTSCSTTSSFRWTDSSASGTAGFVWNNVQPDNSDLNSQCAVLHAGSSAATVSNAVWQPAMMDDVTCSFDPAGRDPRSIYGYVCGKKPSRR”: “not soluble”; for “MTKIKIVVIVGPTAVGKTALGISLAKAFNGEIISGDSQQVYRQLDIGTAKATQEEQEAAVHHLIDIREVTESYSAYDFVQDAQKSISDIVSRGKLPIIVGGTGLYLQSLLEGYHLGGQVDQEAVKAYRNELEQLDDHDLYERLQVNNITIEQVNRRRAIRALELAQFADELENAETAYEPLIIGLNDDRQVIYDRINQRVNRMIENGLLEEAKWLYEHYPTVQASRGIGYKELFPYFVGEMTLAEASDQLKQNTRRFAKRQLTWFRNRMAVSFTAITAPDYPQVVHDRVRDFLGQKEKSLEHHHHHH”: “not soluble”; for “MTKLEVCCYSVDCAQIAEKAGADRVELCCGQSEGGVTPSVGALMQARETVTIPVHPIVRPRGGDFCYSSNDFTIMKNDIARIRDLGFAGVVVGVLDTDGHIDMPRMREIMSVSGSLAVTFHRAFDMCQNPMIALKQLAELNVARILTSGQQQNAELGLALLKDLVAATKDQGPIIMAGAGVRLTNMQKFIDAGIRELHSSAGRTVPSTMRYRKAGVTMCADSDVDEFSHYCVDGEVVEAMKSLLVMGSPLAKHT”: “soluble”.
The same measure for “MTKLFLPNTQATQQLGITLGKNLTAGSVILLEGDLGAGKTTLVQGIGKGLGINESIVSPTFTLINEYIEGRIPLYHLDLYRLKPQEVTGLNLESYWEGIEVTPGIVAIEWAERMPYLPDSYFRVCLKSGEDGDRQLEITAVNCQMIDNLISS”: “not soluble”; for “MTKLQGLQGLKHIKAVVFDMDGTLCLPQPWMFPAMRNAIGLEDKSIDILHFIDTLPTEKEKKEAHDRIELVEAKAMKEMQPQPGLVDIMRYLTKNGISKNICTRNVGAPVETFVKRFIPSELSRFDYIVTREFRPTKPQPDPLLHIASKLNIRPLEMIMVGDSFDDMKSGRSAGCFTVLLKNHVNGHLLLEHKELVDVSVEDLSEIIELIQNMNKESF”: “not soluble”.
On to “MTKTKFEKVLLIVNPKAGQGDLHTNLTKIVPPLAAAFPDLHILHTKEQGDATKYCQEFASKVDLIIVFGGDGTVFECTNGLAPLEIRPTLAIIPGGTCNDFSRTLGVPQNIAEAAKLITKEHVKPVDVAKANGQHFLNFWGIGLVSEVSNNIDAEEKAKLGKIGYYLSTIRTVKNAETFPVKITYDGQVYEDEAVLVMVGNGEYLGGIPSFIPNVKCDDGTLDIFVVKSTGIQAFKDYIGKKLFEDSNENDIFHVKAKSIHIETEEEKEVDTDGESSLHTPCQIELLQGHFTMIYNPAVV”, for which the “soluble on expression in E. coli” value is on record as “soluble”.
The same measure for “MTLAIEMKDVMKSFNEKTALRNVNIEVKQGEIFGFLGPSGSGKTTTVKILTSQLLHSVGTVRVLGKDITGPSSIDYKRIGILTDNSGLYERLSIYDNLLLFCDLYDCKKERIDEVLAQVNLLEDKKTLVKKLSKGMKQRVTLARAILHKPDILFLDEPTSALDPVNVQNIHKILKDLNREGTTIFLTTHNMDEAETLCNRIAFLCSGEIVALDTPENLRLQYAKDQIQVVLKDKKKETVQKDELGAKRISEWMKKGELLSIHSYEPTLGDIFIEVTGRGL”: “not soluble”; for “MTLILKRVQLLKDKPRREAIDRFLRQHQLSLEADCEMAIIAEYQQRLVGCGAIAGNVLKCIAIDPSLQGEGLSLKLLTELLTLAYELGRSELFLFTKPCNAALFSGAGFWPIAQAGDRAVLMENSRERLTRYCRQLAMYRQPGRKIGAIVMNANPFTLGHRWLVEQAASQCDWLHLFVVKEDASCFSYHDRFKLIEQGITGIDKVTLHPGSAYLISRATFPGYFLKEQGVVDDCHSQIDLQLFRERLAPALQITHRFVGTEPLCPLTRNYNQRMKSLLEAPGDAPPIEVVELARIEKNGGPVSASRVRELYRQRNWQAVAALVPPGTLSFLMQLAESEHQTA”: “not soluble”; for “MTLIRWNPWQDLNTLQRQLNHLFEEDMLPSTLLERTLTRVPAAELHETAEVIYLKLELPGIDAKDVDLQVTDKAVYISGERKSETKTEDKGVFKSEFQYGKFQRVIPLPARIQNTNVTAEYKDGILNLTLPKAEVEKNKVVKINIESAAGLEHHHHHH”: “soluble”.
The same measure for “MTLSKQLKTYITERFKLNYQDTWSCETVDAVAEDVLPEKYIKNSPLEHKILNTFTYYNDELHEISIYPFLCYLDKELIAIGYLDNFDLDFIFLNDTHQIIIDERYLLQKGGELEHHHHHH”: “not soluble”.

Values taken from the DeepSol protein solubility set.
